# Reference: article PMC9482650, “Quantitative fragmentomics allow affinity mapping of interactomes” (Nature Communications, 2022)
# Numbering of substitutions follows the chain as printed.
# T1: APBA1_2, Q02410
# T1 sequence (Q02410 742-832, limits assumed, looked up): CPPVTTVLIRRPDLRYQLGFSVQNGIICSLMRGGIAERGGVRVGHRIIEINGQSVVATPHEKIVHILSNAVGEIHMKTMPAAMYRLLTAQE
# T2: ARHGEF11, O15085
# T2 sequence (O15085 42-136, limits assumed, looked up): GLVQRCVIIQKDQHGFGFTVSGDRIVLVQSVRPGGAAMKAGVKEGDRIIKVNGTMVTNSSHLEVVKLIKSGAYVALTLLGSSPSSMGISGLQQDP
# T3: FRMPD1, Q5SYB0
# T3 sequence (Q5SYB0 52-145, limits assumed, looked up): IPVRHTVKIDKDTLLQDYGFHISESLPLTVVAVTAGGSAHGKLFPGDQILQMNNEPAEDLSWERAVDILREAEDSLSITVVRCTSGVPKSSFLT
# T4: GRIP1_3, Q9Y3R0
# T4 sequence (Q9Y3R0 247-346, limits assumed, looked up): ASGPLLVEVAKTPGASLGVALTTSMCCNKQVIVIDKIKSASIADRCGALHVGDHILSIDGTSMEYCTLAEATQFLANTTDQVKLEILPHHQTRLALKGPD
# T5: GRIP1_7, Q9Y3R0
# T5 sequence (Q9Y3R0 999-1096, limits assumed, looked up): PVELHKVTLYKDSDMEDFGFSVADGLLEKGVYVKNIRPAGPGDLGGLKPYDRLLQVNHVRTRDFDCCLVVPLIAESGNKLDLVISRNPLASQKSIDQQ
# T6: LIN7A, O14910
# T6 sequence (O14910 103-200, limits assumed, looked up): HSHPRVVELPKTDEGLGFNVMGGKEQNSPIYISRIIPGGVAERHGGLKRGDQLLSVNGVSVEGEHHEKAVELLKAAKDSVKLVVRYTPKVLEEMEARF
# T7: LIN7B, Q9HAP6
# T7 sequence (Q9HAP6 88-185, limits assumed, looked up): T6 sequence (O14910 103-200, limits assumed, looked up) with S2A, V20I, I35V, E42D, H65Q, K77Q, D78G, K89R
# T8: MPP2, Q14168
# T8 sequence (Q14168 180-250, limits assumed, looked up): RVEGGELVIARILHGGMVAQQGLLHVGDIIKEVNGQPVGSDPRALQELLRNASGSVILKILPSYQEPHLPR
# T9: PCLO, Q9Y6V0
# T9 sequence (Q9Y6V0 4491-4600, limits assumed, looked up): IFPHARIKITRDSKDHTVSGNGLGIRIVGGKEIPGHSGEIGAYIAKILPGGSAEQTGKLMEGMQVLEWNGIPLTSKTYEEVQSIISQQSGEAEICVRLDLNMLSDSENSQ
# T10: SNTG2, Q9NY99
# T10 sequence (Q9NY99 68-166, limits assumed, looked up): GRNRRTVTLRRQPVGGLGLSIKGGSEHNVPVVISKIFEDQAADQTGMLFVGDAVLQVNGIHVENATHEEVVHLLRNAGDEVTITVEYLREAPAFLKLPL
# T11: TX1BP3, O14907
# T11 sequence (O14907 10-122, limits assumed, looked up): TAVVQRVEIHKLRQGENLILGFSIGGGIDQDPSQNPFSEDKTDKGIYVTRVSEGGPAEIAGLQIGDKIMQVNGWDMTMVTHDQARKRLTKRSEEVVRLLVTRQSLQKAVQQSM
# Legend:
# Assay in all cases: holdup assay
# Design in all cases: key: below the threshold = too weak to quantify, mostly under pKd 3.1 to 4
# AHNAK1, Q09666 = biological target: AHNAK1, Q09666
# APBA1_2, Q02410 = biological target: T1, APBA1_2, Q02410
# ARHGEF11, O15085 = biological target: T2, ARHGEF11, O15085
# DLG1_1, Q12959 = biological target: DLG1_1, Q12959
# DLG2_3, Q15700 = biological target: DLG2_3, Q15700
# DLG4_2, P78352 = biological target: DLG4_2, P78352
# FRMPD1, Q5SYB0 = biological target: T3, FRMPD1, Q5SYB0
# FRMPD2_2, Q68DX3 = biological target: FRMPD2_2, Q68DX3
# FRMPD4, Q14CM0 = biological target: FRMPD4, Q14CM0
# GORASP2, Q9H8Y8 = biological target: GORASP2, Q9H8Y8
# GRASP, Q7Z6J2 = biological target: GRASP, Q7Z6J2
# GRID2IP_1, A4D2P6 = biological target: GRID2IP_1, A4D2P6
# GRIP1_3, Q9Y3R0 = biological target: T4, GRIP1_3, Q9Y3R0
# GRIP1_7, Q9Y3R0 = biological target: T5, GRIP1_7, Q9Y3R0
# GRIP2_5, Q9C0E4 = biological target: GRIP2_5, Q9C0E4
# Inadl_1, Q8NI35 = biological target: Inadl_1, Q8NI35
# Inadl_10, Q8NI35 = biological target: Inadl_10, Q8NI35
# LIN7A, O14910 = biological target: T6, LIN7A, O14910
# LIN7B, Q9HAP6 = biological target: T7, LIN7B, Q9HAP6
# MAGI2_3, Q86UL8 = biological target: MAGI2_3, Q86UL8
# MPP2, Q14168 = biological target: T8, MPP2, Q14168
# NHERF4_1, Q86UT5-2 = biological target: NHERF4_1, Q86UT5-2
# NHERF4_4, Q86UT5 = biological target: NHERF4_4, Q86UT5
# PCLO, Q9Y6V0 = biological target: T9, PCLO, Q9Y6V0
# PTPN3, P26045 = biological target: PTPN3, P26045
# SNTG2, Q9NY99 = biological target: T10, SNTG2, Q9NY99
# TX1BP3, O14907 = biological target: T11, TX1BP3, O14907
# [1] = plain residues with an end cap or a label only (N-terminal biotin on a linker: ttds)
# [2] = plain residues with an end cap or a label only (N-terminal biotin on a linker: ado-ado)
# Sequence of FRMPD4, Q14CM0 (Q14CM0 67-160): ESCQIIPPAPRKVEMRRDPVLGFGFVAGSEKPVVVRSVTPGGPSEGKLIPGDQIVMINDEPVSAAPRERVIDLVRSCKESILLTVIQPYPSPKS
# Sequence of Inadl_1, Q8NI35 (Q8NI35 113-229): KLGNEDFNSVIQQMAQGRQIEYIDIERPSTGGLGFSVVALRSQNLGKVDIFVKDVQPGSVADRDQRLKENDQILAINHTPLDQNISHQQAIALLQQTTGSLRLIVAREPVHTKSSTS
# Sequence of MAGI2_3, Q86UL8 (Q86UL8 600-682): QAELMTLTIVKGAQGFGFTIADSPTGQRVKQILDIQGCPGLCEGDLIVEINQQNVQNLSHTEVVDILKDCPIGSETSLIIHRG
# Sequence of FRMPD2_2, Q68DX3 (Q68DX3 944-1038): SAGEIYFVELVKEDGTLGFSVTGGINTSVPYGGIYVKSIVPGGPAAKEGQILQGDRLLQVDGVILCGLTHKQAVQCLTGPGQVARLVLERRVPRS
# Sequence of NHERF4_1, Q86UT5-2 (Q86UT5 other isoform, or with tags, fused parts or gaps): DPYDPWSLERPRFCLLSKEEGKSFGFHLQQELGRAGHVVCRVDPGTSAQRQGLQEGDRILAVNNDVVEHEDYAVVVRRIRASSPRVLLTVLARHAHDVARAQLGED
# Sequence of AHNAK1, Q09666 (Q09666 4-100): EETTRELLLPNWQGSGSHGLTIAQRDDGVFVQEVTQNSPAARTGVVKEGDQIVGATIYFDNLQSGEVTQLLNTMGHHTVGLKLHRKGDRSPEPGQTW
# Sequence of NHERF4_4, Q86UT5 (Q86UT5 464-550): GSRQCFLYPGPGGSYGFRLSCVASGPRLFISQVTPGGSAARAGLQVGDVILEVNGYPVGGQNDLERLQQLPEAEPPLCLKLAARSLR
# Sequence of PTPN3, P26045 (P26045 505-587): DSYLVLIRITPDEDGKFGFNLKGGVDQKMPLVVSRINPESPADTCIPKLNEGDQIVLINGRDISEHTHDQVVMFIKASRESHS
# Sequence of GRIP2_5, Q9C0E4 (Q9C0E4 544-642): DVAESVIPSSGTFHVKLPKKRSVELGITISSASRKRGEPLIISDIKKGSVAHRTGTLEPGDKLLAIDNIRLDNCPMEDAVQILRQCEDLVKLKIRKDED
# Sequence of DLG4_2, P78352 (P78352 155-259): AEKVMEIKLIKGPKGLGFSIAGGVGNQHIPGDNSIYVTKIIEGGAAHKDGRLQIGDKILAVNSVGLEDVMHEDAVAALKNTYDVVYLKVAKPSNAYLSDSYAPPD
# Sequence of GRASP, Q7Z6J2 (Q7Z6J2 96-193): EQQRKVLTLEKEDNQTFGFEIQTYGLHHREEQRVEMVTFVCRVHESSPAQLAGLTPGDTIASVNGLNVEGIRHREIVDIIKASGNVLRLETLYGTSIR
# Sequence of Inadl_10, Q8NI35 (Q8NI35 1673-1763): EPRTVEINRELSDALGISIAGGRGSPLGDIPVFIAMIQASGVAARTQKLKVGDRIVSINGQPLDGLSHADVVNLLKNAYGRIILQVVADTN
# Sequence of GRID2IP_1, A4D2P6 (A4D2P6 1-87): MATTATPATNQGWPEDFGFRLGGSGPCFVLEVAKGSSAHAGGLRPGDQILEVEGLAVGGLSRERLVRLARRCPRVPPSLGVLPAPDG
binder,measurement,setting,value
"KQVVPFSSSV [GDA, Q9Y2T3]",pKd,"AHNAK1, Q09666; [1]",below the threshold
same,pKd,"APBA1_2, Q02410; [1]",below the threshold
same,pKd,"ARHGEF11, O15085; [1]",3.56
same,pKd,"DLG1_1, Q12959; [1]",3.89
same,pKd,"DLG2_3, Q15700; [1]",3.63
same,pKd,"DLG4_2, P78352; [1]",4.42
same,pKd,"FRMPD1, Q5SYB0; [1]",below the threshold
same,pKd,"FRMPD2_2, Q68DX3; [1]",below the threshold
same,pKd,"FRMPD4, Q14CM0; [1]",below the threshold
same,pKd,"GORASP2, Q9H8Y8; [1]",below the threshold
same,pKd,"GRASP, Q7Z6J2; [1]",3.86
same,pKd,"GRID2IP_1, A4D2P6; [1]",below the threshold
same,pKd,"GRIP1_3, Q9Y3R0; [1]",below the threshold
same,pKd,"GRIP1_7, Q9Y3R0; [1]",below the threshold
same,pKd,"GRIP2_5, Q9C0E4; [1]",below the threshold
same,pKd,"Inadl_1, Q8NI35; [1]",below the threshold
same,pKd,"Inadl_10, Q8NI35; [1]",below the threshold
same,pKd,"LIN7A, O14910; [1]",below the threshold
same,pKd,"LIN7B, Q9HAP6; [1]",below the threshold
same,pKd,"MAGI2_3, Q86UL8; [1]",below the threshold
same,pKd,"MPP2, Q14168; [1]",below the threshold
same,pKd,"NHERF4_1, Q86UT5-2; [1]",below the threshold
same,pKd,"NHERF4_4, Q86UT5; [1]",below the threshold
same,pKd,"PCLO, Q9Y6V0; [1]",below the threshold
same,pKd,"PTPN3, P26045; [1]",4.24
same,pKd,"SNTG2, Q9NY99; [1]",below the threshold
same,pKd,"TX1BP3, O14907; [1]",4.31
"GARVSKETPL [MAPK12, P53778]",pKd,"AHNAK1, Q09666; [1]",below the threshold
same,pKd,"APBA1_2, Q02410; [1]",3.74
same,pKd,"ARHGEF11, O15085; [1]",3.48
same,pKd,"DLG1_1, Q12959; [1]",4.08
same,pKd,"DLG2_3, Q15700; [1]",4.21
same,pKd,"DLG4_2, P78352; [1]",4.45
same,pKd,"FRMPD1, Q5SYB0; [1]",below the threshold
same,pKd,"FRMPD2_2, Q68DX3; [1]",below the threshold
same,pKd,"FRMPD4, Q14CM0; [1]",4.1
same,pKd,"GORASP2, Q9H8Y8; [1]",below the threshold
same,pKd,"GRASP, Q7Z6J2; [1]",3.66
same,pKd,"GRID2IP_1, A4D2P6; [1]",below the threshold
same,pKd,"GRIP1_3, Q9Y3R0; [1]",below the threshold
same,pKd,"GRIP1_7, Q9Y3R0; [1]",below the threshold
same,pKd,"GRIP2_5, Q9C0E4; [1]",below the threshold
same,pKd,"Inadl_1, Q8NI35; [1]",below the threshold
same,pKd,"Inadl_10, Q8NI35; [1]",below the threshold
same,pKd,"LIN7A, O14910; [1]",below the threshold
same,pKd,"LIN7B, Q9HAP6; [1]",3.86
same,pKd,"MAGI2_3, Q86UL8; [1]",below the threshold
same,pKd,"MPP2, Q14168; [1]",below the threshold
same,pKd,"NHERF4_1, Q86UT5-2; [1]",3.85
same,pKd,"NHERF4_4, Q86UT5; [1]",below the threshold
same,pKd,"PCLO, Q9Y6V0; [1]",below the threshold
same,pKd,"PTPN3, P26045; [1]",4.93
same,pKd,"SNTG2, Q9NY99; [1]",4.18
same,pKd,"TX1BP3, O14907; [1]",4.26
"IGHEDLETAV [DGKI, O75912]",pKd,"AHNAK1, Q09666; [2]",below the threshold
same,pKd,"APBA1_2, Q02410; [2]",4.03
same,pKd,"ARHGEF11, O15085; [2]",4.55
same,pKd,"DLG1_1, Q12959; [2]",4.51
same,pKd,"DLG2_3, Q15700; [2]",3.96
same,pKd,"DLG4_2, P78352; [2]",4.97
same,pKd,"FRMPD1, Q5SYB0; [2]",below the threshold
same,pKd,"FRMPD2_2, Q68DX3; [2]",5.22
same,pKd,"FRMPD4, Q14CM0; [2]",3.9
same,pKd,"GORASP2, Q9H8Y8; [2]",below the threshold
same,pKd,"GRASP, Q7Z6J2; [2]",3.57
same,pKd,"GRID2IP_1, A4D2P6; [2]",below the threshold
same,pKd,"GRIP1_3, Q9Y3R0; [2]",below the threshold
same,pKd,"GRIP1_7, Q9Y3R0; [2]",below the threshold
same,pKd,"GRIP2_5, Q9C0E4; [2]",below the threshold
same,pKd,"Inadl_1, Q8NI35; [2]",below the threshold
same,pKd,"Inadl_10, Q8NI35; [2]",below the threshold
same,pKd,"LIN7A, O14910; [2]",4.07
same,pKd,"LIN7B, Q9HAP6; [2]",4.11
same,pKd,"MAGI2_3, Q86UL8; [2]",4.61
same,pKd,"MPP2, Q14168; [2]",below the threshold
same,pKd,"NHERF4_1, Q86UT5-2; [2]",below the threshold
same,pKd,"NHERF4_4, Q86UT5; [2]",below the threshold
same,pKd,"PCLO, Q9Y6V0; [2]",below the threshold
same,pKd,"PTPN3, P26045; [2]",5.02
same,pKd,"SNTG2, Q9NY99; [2]",4.8
same,pKd,"TX1BP3, O14907; [2]",4.3
"DLDEEEDTHL [PODXL, O00592]",pKd,"AHNAK1, Q09666; [1]",below the threshold
same,pKd,"APBA1_2, Q02410; [1]",below the threshold
same,pKd,"ARHGEF11, O15085; [1]",below the threshold
same,pKd,"DLG1_1, Q12959; [1]",3.63
same,pKd,"DLG2_3, Q15700; [1]",below the threshold
same,pKd,"DLG4_2, P78352; [1]",below the threshold
same,pKd,"FRMPD1, Q5SYB0; [1]",below the threshold
same,pKd,"FRMPD2_2, Q68DX3; [1]",below the threshold
same,pKd,"FRMPD4, Q14CM0; [1]",4.7
same,pKd,"GORASP2, Q9H8Y8; [1]",3.48
same,pKd,"GRASP, Q7Z6J2; [1]",below the threshold
same,pKd,"GRID2IP_1, A4D2P6; [1]",below the threshold
same,pKd,"GRIP1_3, Q9Y3R0; [1]",below the threshold
same,pKd,"GRIP1_7, Q9Y3R0; [1]",below the threshold
same,pKd,"GRIP2_5, Q9C0E4; [1]",below the threshold
same,pKd,"Inadl_1, Q8NI35; [1]",below the threshold
same,pKd,"Inadl_10, Q8NI35; [1]",below the threshold
same,pKd,"LIN7A, O14910; [1]",below the threshold
same,pKd,"LIN7B, Q9HAP6; [1]",below the threshold
same,pKd,"MAGI2_3, Q86UL8; [1]",below the threshold
same,pKd,"MPP2, Q14168; [1]",below the threshold
same,pKd,"NHERF4_1, Q86UT5-2; [1]",below the threshold
same,pKd,"NHERF4_4, Q86UT5; [1]",below the threshold
same,pKd,"PCLO, Q9Y6V0; [1]",below the threshold
same,pKd,"PTPN3, P26045; [1]",3.85
same,pKd,"SNTG2, Q9NY99; [1]",below the threshold
same,pKd,"TX1BP3, O14907; [1]",below the threshold
